{"source": "paper PMC10107152", "proteins": {"B1": {"name": "SPS (styrylpyrone synthase; WT-SPS) (Piper methysticum) (protein)", "chain": "MSKTVEDRAAQRAKGPATVLAIGTATPANVVYQTDYPDYYFRVTKSEHMTKLKNKFQRMCDRSTIKKRYMVLTEELLEKNLSLCTYMEPSLDARQDILVPEVPKLGKEAADEAIAEWGRPKSEITHLIFCTTCGVDMPGADYQLTKLLGLRSSVRRTMLYQQGCFGGGTVLRLAKDLAENNAGARVLVVCSEITTAVNFRGPSDTHLDLLVGLALFGDGAAAVIVGADPDPTLERPLFQIVSGAQTILPDSEGAINGHLREVGLTIRLLKDVPGLVSMNIEKCLMEAFAPMGIHDWNSIFWIAHPGGPTILDQVEAKLGLKEEKLKSTRAVLREYGNMSSACVLFILDEVRKRSMEEGKTTTGEGFDWGVLFGFGPGFTVETVVLHSMPIPKADEGR"}, "B2": {"name": "2PS (2-pyrone synthase; WT-2PS) (Gerbera hybrid cultivar) (protein)", "chain": "MGSYSSDDVEVIREAGRAQGLATILAIGTATPPNCVAQADYADYYFRVTKSEHMVDLKEKFKRICEKTAIKKRYLALTEDYLQENPTMCEFMAPSLNARQDLVVTGVPMLGKEAAVKAIDEWGLPKSKITHLIFCTTAGVDMPGADYQLVKLLGLSPSVKRYMLYQQGCAAGGTVLRLAKDLAENNKGSRVLIVCSEITAILFHGPNENHLDSLVAQALFGDGAAALIVGSGPHLAVERPIFEIVSTDQTILPDTEKAMKLHLREGGLTFQLHRDVPLMVAKNIENAAEKALSPLGITDWNSVFWMVHPGGRAILDQVERKLNLKEDKLRASRHVLSEYGNLISACVLFIIDEVRKRSMAEGKSTTGEGLDCGVLFGFGPGMTVETVVLRSVRVTAAVANGN"}, "B3": {"name": "2PS (2-pyrone synthase; WT-2PS) (Gerbera hybrid cultivar; I201V/I343S/L202T/L261A) (protein)", "chain": "B2 chain with I201V, L202T, L261A, I343S"}, "B4": {"name": "2PS (2-pyrone synthase; WT-2PS) (Gerbera hybrid cultivar; I201V/I343S/L202T) (protein)", "chain": "B2 chain with I201V, L202T, I343S"}, "B5": {"name": "2PS (2-pyrone synthase; WT-2PS) (Gerbera hybrid cultivar; I201V/I343S/L202T/L261V) (protein)", "chain": "B2 chain with I201V, L202T, L261V, I343S"}, "B6": {"name": "2PS (2-pyrone synthase; WT-2PS) (Gerbera hybrid cultivar; I201V/I343S/L202T/L261G) (protein)", "chain": "B2 chain with I201V, L202T, L261G, I343S"}}, "note": "Substitutions are numbered along the chain they refer to. Names may count otherwise.", "data": [{"substrate": "CC(C)(COP(=O)(O)OP(=O)(O)OC[C@H]1O[C@@H](n2cnc3c(N)ncnc32)[C@H](O)[C@@H]1OP(=O)(O)O)[C@@H](O)C(=O)NCCC(=O)NCCSC(=O)/C=C/c1ccccc1", "experiment": "purified protein", "conditions": "varied cinnamoyl-CoA; malonyl-CoA as extender", "units": {"Km": "µM", "kcat": "s⁻¹", "kcat/Km": "M⁻¹ s⁻¹"}, "values": [{"protein": "B1", "Km": "3.7 ± 0.5", "kcat": "0.00287 ± 0.0001", "kcat/Km": "770 ± 30"}, {"protein": "B2", "Km": "1.6 ± 0.5", "kcat": "0.000533 ± 5e-05", "kcat/Km": "340 ± 60"}, {"protein": "B3", "Km": "4.2 ± 0.8", "kcat": "0.0312 ± 0.00233", "kcat/Km": "7400 ± 1500"}, {"protein": "B4", "Km": "1.4 ± 0.3", "kcat": "0.000767 ± 3.33e-05", "kcat/Km": "568 ± 116"}, {"protein": "B5", "Km": "2.1 ± 0.5", "kcat": "0.00225 ± 0.000167", "kcat/Km": "1070 ± 270"}, {"protein": "B6", "Km": "7.1 ± 1.1", "kcat": "0.165 ± 0.01", "kcat/Km": "23000 ± 4000"}]}]}
